Blank lines part the entries; values can stand above or below the binder they belong to.
Tests used:
[1] = biological target: T1, mouse GPVI extracellular region-human Fc fusion protein (mGPVI-hFc) (mouse); test: competition ELISA, soluble GPVI-Fc against immobilised hGPVI-hFc
T1 construct: whole fusion entry; also called GPVI-MMM-hFc; mouse GPVI-Fc
Experimental: To the plate, wherein hGPVI-hFc has been immobilized at 4 μg/mL, a mixture of peroxidase-labeled F1232-37-2 or cF1232-37-2 by the method described in EXAMPLE 14, and hGPVI-hFc, mGPVI-hFc, hGPVI-mL3-hFc, wherein these were prepared in EXAMPLE 7, or hGPVI-K59E-hFc (a fusion protein consisting of one amino acid mutated human GPVI extracellular region, wherein lysine at 59 of human GPVI is substituted for glutamic acid, and human Fc), which has been prepared by the same method as that of EXAMPLE 1 and diluted with 0.1% BSA/PBS was added, and the plate was incubated at 37° C. for one hour. After incubation, the mixture was developed using TMB solution, and absorbance at 450 nm was measured.

[2] = biological target: T2, cynomolgus monkey GPVI on cynomolgus monkey platelets (cynomolgus monkey, UniProt A0A2K5VXN2 21-318); test: homologous competitive binding of 125I-labelled antibody on washed cynomolgus monkey platelets, n=3, mean±S.E.
T2 construct: whole, on cells; also called simian platelets
T2 sequence: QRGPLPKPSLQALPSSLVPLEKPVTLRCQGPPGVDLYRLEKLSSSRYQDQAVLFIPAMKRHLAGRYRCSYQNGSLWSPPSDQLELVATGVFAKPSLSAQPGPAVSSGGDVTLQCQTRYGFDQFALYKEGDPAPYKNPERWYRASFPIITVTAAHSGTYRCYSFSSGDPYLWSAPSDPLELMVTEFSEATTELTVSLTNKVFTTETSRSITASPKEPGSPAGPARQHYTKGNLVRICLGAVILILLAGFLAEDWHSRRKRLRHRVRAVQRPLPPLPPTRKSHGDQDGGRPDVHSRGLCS
Experimental: (§1) ACD-A (acid citrate-dextrose) was added to the PRPs prepared from citrated blood obtained from healthy human or cynomolgus monkey to adjust the pH to 6.5. The obtained PRPs were collected by centrifugation at 2,000 rpm. The pelleted platelets were washed with HEPES Buffer (pH was adjusted to 6.5 with ACD-A). An appropriate quantity of HEPES Buffer (pH 7.4) was added to prepare platelet suspension. The number of platelets were determined with SYSMEX® F-820 (Sysmex Co.), then the above-described platelet suspension was diluted with HEPES buffer (pH 7.4) to platelet count at 6×10⁵ cells/μL.
(§2) To the diluted washed platelets, the labeled and non-labeled antibodies were added at final concentrations of 3 nM and 0-1250 nM, respectively, and mixed to obtain platelet count at 3×10⁵ cells/μL. After incubating the mixture on the ice for one hour, the reactant was passed through 30% sucrose/HEPE buffer (pH 7.4) layered column and centrifuged at 12,000 g for 5 min in order to separate the platelets and non-bound antibodies. The radioactivity of each fraction was measured using automatic gamma counter 1470 WIZARD (PerkinElmer Japan). Data was analyzed using GraphPad Prism software (Graph Pad Software, Inc.).

[3] = biological target: T3, human platelet membrane glycoprotein VI (GPVI) on human platelets (human, UniProt Q9HCN6 21-339); test: homologous competitive binding of 125I-labelled antibody on washed human platelets, n=3, mean±S.E.
T3 construct: whole, on cells
T3 sequence (looked up): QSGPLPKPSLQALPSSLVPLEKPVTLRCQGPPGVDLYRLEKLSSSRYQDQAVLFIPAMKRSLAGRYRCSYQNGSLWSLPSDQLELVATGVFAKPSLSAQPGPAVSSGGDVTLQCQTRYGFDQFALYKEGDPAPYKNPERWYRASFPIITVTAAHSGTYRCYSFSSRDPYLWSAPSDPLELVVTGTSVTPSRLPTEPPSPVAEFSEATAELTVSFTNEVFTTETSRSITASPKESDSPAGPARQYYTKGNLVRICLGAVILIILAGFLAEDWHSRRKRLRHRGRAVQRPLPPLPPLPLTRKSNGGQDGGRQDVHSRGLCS
Experimental: as §1, §2

[4] = biological target: T4, human GPVI extracellular region-human Fc fusion protein (hGPVI-hFc) (human); test: SPR BIACORE 3000 as in Example 5 (the reference itself)
T4 construct: Expressed in COS-1, purified on Protein A; also called GPVI-HHH-hFc; hGPVIHHH-hFc

[5] = biological target: T4, human GPVI extracellular region-human …; test: ELISA on immobilised hGPVI-hFc; ++ = absorbance 1.0 to 2.0
Experimental: The hGPVI-hFc prepared by EXAMPLE 1B was diluted with D-PBS to 2 μg/mL and added to immunoplate (Maxisorp, NUNC) at 50 μL/well. After incubation at 37° C. for one hour, the well was washed five times with ion-exchanged water, and D-PBS (pH7.4) containing 2% STABILGUARD® (chemical solutions for stabilizing biological molecules) (Surmodics) was added to each well in 100 μL for blocking. Next, culture supernatant was added to each well and incubated at 37° C. for one hour. After incubation, the well was washed three times with the saline containing 0.05% TWEEN®20 (Polyoxyethylene (20) sorbitan monolaurate). […] After incubation at 37° C. for one hour, washing in a similar manner was performed five times and TMB solution (BIOFX® (reagents for scientific or medical research) was added to each well. After ten minutes at room temperature, the reaction was terminated with 0.5 M sulfuric acid solution. Subsequently, absorbance at 450 nm was measured with the plate spectrophotometer (Multiscan JX, Dainippon Pharmaceutical). As a result, the cell whose culture supernatant reacted to hGPVI-hFc was selected and a cloning with limiting dilution method (“The Introduction to Monoclonal Antibody Experimental Procedure” written by Tamie Andoh and Takeshi Chiba (Kodansha, p97)) was performed. […]

T1 sequence (chain, as listed by the source limits assumed): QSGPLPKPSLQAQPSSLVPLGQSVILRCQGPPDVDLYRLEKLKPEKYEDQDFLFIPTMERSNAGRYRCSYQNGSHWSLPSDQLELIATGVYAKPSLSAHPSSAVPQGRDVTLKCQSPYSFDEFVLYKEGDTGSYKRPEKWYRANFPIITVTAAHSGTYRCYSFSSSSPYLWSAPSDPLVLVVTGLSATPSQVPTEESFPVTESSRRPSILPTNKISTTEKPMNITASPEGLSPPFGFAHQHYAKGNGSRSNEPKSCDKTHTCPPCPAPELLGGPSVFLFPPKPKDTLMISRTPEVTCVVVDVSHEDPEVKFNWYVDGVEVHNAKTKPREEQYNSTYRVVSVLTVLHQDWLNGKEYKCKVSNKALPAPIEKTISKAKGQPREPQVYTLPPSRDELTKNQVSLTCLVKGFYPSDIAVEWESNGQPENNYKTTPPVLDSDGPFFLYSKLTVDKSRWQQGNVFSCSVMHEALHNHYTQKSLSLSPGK

binding result [1]: no binding
Kd [2]: 20 nM
Kd [3]: 17 nM
B1: cF1232-37-2 (mouse/human chimeric F1232-37-2) (antibody, V domains shown)
VH: VQLQQSGPELVRPGESVKISCKGSGYTFTDYAIHWVKLSHAKSLEWIGVISIYYDDTNYNQKFKGKATMTVDKSSSTAYLELARLTSEDSAIYYCARRRDSSGPYAMDYWGQGTSVTVSS
VL: DIVLTQSPASLAVSLGQRATISCRASESVDSYGNSFMHWYQQKPGQPPKLLIYRASNLESGIPARFSGSGSRTDFTLTINPVEADDVATYYCQQSNEDPYTFGGGTKLEIKR
notes: V regions of F1232-37-2 on human IgG4 (Cgamma4) and human Ckappa constant regions; made in COS-1 (/COS) or CHO (/CHO); both preparations are kept under this one id; also called cF1232-37-2/COS; cF1232-37-2/CHO

KD (Relative value) [4]: 1 relative to F1232-37-2 = 1
binding result [1]: no binding
absorbance [5]: 1 to 2 od
B2: F1232-37-2 (antibody, V domains shown)
VH: B1 VH
VL: B1 VL
notes: mouse hybridoma monoclonal antibody; also called F1232-37-2 antibody; mouse monoclonal antibody F1232-37-2

Source: US20110217318A1 (MOCHIDA PHARMACEUTICAL, published 2011)
